Reference: paper PMC5542437, “Assembly and stoichiometry of the core structure of the bacterial flagellar type III export gate complex” (PLoS Biology, 2017)

T1: FlhB (Salmonella enterica, UniProt P40727 1-383)
T1 construct: FlhB, Salmonella enterica, transmembrane export gate protein; its C-terminal cytoplasmic domain undergoes autocleavage between Asp-269 and Pro270 as printed; source: Salmonella SJW1368, pTrc99A-based plasmid, in DDM- or LMNG-solubilised membranes; co-purified
T1 sequence: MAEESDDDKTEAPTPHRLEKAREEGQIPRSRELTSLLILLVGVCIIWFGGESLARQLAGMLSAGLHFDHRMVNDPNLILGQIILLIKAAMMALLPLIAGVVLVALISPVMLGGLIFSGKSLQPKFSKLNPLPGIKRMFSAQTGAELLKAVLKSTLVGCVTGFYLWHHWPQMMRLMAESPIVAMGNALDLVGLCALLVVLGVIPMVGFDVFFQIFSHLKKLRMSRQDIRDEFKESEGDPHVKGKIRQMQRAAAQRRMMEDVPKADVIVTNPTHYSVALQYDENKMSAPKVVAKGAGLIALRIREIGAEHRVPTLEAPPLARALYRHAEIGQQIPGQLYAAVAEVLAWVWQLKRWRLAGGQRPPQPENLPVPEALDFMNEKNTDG

T2: FliR-FLAG (Salmonella enterica, UniProt P54702 1-264)
T2 construct: FliR, Salmonella enterica, transmembrane export gate protein; also called FLAG-FliR (as printed in the methods); source: Salmonella SJW1368, pTrc99A-based plasmid, in DDM- or LMNG-solubilised membranes; co-purified (Ni-NTA, anti-FLAG gel, SEC)
T2 sequence: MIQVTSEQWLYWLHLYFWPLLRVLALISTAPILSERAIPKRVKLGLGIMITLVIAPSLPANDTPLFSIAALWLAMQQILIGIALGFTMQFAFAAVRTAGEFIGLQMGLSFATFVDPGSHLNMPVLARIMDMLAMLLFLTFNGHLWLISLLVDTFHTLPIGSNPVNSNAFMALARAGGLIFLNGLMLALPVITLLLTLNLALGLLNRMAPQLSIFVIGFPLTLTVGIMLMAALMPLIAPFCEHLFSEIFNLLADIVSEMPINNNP

T3: FlhA (Salmonella enterica, UniProt P40729 1-692)
T3 construct: FlhA, Salmonella enterica, transmembrane export gate protein; source: Salmonella SJW1368, pTrc99A-based plasmid, in DDM- or LMNG-solubilised membranes; co-purified
T3 sequence: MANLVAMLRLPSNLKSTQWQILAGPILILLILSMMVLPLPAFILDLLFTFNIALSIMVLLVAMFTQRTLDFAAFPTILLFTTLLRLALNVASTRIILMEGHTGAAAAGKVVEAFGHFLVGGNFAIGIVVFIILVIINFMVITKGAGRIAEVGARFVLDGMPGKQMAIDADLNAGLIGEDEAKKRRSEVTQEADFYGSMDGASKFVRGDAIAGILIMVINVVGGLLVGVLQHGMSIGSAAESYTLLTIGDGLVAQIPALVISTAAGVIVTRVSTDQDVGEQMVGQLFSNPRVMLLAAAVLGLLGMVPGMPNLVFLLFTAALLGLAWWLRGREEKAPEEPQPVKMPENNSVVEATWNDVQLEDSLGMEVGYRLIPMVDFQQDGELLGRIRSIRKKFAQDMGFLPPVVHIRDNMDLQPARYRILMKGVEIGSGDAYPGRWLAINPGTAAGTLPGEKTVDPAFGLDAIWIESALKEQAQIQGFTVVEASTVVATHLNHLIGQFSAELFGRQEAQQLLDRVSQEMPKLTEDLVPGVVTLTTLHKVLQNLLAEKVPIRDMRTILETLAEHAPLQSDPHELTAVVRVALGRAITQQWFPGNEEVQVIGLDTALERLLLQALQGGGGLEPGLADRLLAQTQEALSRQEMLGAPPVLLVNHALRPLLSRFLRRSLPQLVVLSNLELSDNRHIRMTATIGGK

B1: His-St-FliP (Salmonella FliP with a hexahistidine tag inserted between Gln-22 and Leu-23) (natural protein)
chain: QLPGLISQPLAGGGQSWSLSVQTLVFITSLTFLPAILLMMTSFTRIIIVFGLLRNALGTPSAPPNQVLLGLALFLTFFIMSPVIDKIYVDAYQPFSEQKISMQEALDKGAQPLRAFMLRQTREADLALFARLANSGPLQGPEAVPMRILLPAYVTSELKTAFQIGFTIFIPFLIIDLVIASVLMALGMMMVPPATIALPFKLMLFVLVDGWQLLMGSLAQSFYS
notes: FliP, Salmonella enterica, 25-kDa transmembrane protein; mature form studied; the signal peptide (Met-1 to Gln-22) is cleaved during membrane insertion; tag LHHHHHH inserted between Gln-22 and Leu-23; Hexameric ring in SEC peak 2; also called His-FliP; FliP6 ring; source: Salmonella SJW1368, membranes solubilised with 1% DDM or 1% LMNG; purified (Ni-NTA, SEC); not shown: His6 (LHHHHHH), internal …

Legend:
[1] = target: the molecule itself; experiment: negative-stain electron microscopy with 2D class averaging; purified SEC peak fractions, 1.0% uranyl acetate, 100 kV; autocorrelation analysis for the rotational symmetry of the FliP ring
FlhB = target: T1, FlhB; experiment: pull-down; copurification from Salmonella SJW1368 co-expressing His-FliP with other export gate proteins; membranes solubilised with 1% DDM; Ni affinity, then anti-FLAG M2 affinity (eluted with FLAG peptide), then SEC on Superdex 200 10/300; SDS-PAGE with CBB; settings: partners not purified
FliR-FLAG = target: T2, FliR-FLAG; experiment: as above; settings: partners not purified
[2] = target: the molecule itself; experiment: SEC; Ni-purified His-FliP or FliO/His-FliP complexes (wild type and mutants) on Superdex 200 10/300; 20 mM Tris-HCl pH 8.0, 300 mM NaCl, 2 mM EDTA, 5% glycerol, 0.1% DDM
FlhA = target: T3, FlhA; experiment: pull-down; Ni-NTA copurification with His-FliP from SJW1368 co-expressing FlhA, FlhB, FliO, His-FliP, HA-FliQ and FliR-FLAG; membranes solubilised with 1% LMNG; immunoblot (lane L of Fig 6B); settings: partners not purified
[3] = target: B1; experiment: as above; settings: partners not purified

Binder | stoichiometry N [1] | binding result (FlhB) | binding result (FliR-FLAG) | stoichiometry N [2] | binding result (FlhA) | binding result [3]
B1 | 6 | binds | binds | 2 | binds | –
HA-FliQ (natural protein, FliQ, Salmonella enterica, transmembrane export gate protein; source: Salmonella SJW1368, pTrc99A-based plasmid, in DDM- or LMNG-solubilised membranes; co-purified) MTPESVMMMGTEAMKVALALAAPLLLVALITGLIISILQAATQINEMTLSFIPKIVAVFIAIIVAGPWMLNLLLDYVRTLFSNLPYIIG | – | – | – | – | – | binds
